The assay concerns the target T1, GLP1R (Homo sapiens, UniProt P43220, A316G/L260F).
T1 construct: host or cells: HuTARG cells (engineered HEK293), subclone L696 / L696.19
Nature of the assay: cAMP-responsive CD19 surface reporter assay in HuTARG-L696 GLP1R reporter cell line (FACS). The format is cell-based. An excerpt: HuTARG™ cells, which are HEK293 cells engineered to be capable of de novo antibody generation, were used to generate the reporter cell line. HuTARG™ cells have been stably transfected with expression cassettes for RAG1 and RAG-2 and Tdt. RAG-1 expression is inducible as the gene has been placed downstream of a Tet inducible promoter. HuTARG™ cells have also been stably transfected with a plasmid containing a LoxP site for subsequent insertion of V(D)J substrates.
HuTARG™ cells were modified to express the GLP1 receptor as well as express a reporter gene that was activated by cAMP. […]
Depleted cells were subsequently expanded and depleted an additional time using the same protocol except using a Miltenyi LD magnetic column. […] Single cell clones confirmed to have minimal CD19 expression in the absence of ligand were evaluated for induction of CD19 in the presence of 10 nM Exendin and the L696 subclone was selected. […]
The peptide-grafted antibody, ITS007-V107, was subsequently cloned and expressed as a single-domain VH-IgG antibody without CH1 or a light chain and it was confirmed that the peptide-grafted heavy chain was functional in this format as well (FIG. 12). […]
ITS007-V125 was cloned into a secretion vector, expressed and purified. […] The next day, binding and the percentage of cells expressing the surface marker were determined by FACS.
A general note: A reporter such as luciferase makes a cellular process visible.

T1 sequence (P43220 24-463 L260F/A316G): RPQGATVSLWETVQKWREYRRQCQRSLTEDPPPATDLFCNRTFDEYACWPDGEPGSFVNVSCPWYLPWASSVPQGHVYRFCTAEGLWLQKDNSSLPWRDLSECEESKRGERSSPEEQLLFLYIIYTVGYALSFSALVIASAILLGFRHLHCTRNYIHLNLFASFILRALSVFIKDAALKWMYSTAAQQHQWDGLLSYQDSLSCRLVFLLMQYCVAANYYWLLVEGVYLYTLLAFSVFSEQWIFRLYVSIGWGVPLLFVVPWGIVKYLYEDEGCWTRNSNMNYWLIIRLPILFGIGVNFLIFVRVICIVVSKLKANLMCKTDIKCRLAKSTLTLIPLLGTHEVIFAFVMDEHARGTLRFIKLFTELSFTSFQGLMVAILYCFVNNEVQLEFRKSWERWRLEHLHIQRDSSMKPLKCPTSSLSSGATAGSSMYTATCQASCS

Exendin-4 [reference compound]: under “10 nM, 24 hours, L696 cell line”, the “induction of CD19 expression” value is given as “CD19 expression is specifically induced”. The “percentage of cells showing CD19 expression” value (50 nM, 48 hours incubation with reporter line) is reported as “approximately 8%”.

These data come from US20160297883A1, “G-PROTEIN COUPLED RECEPTOR AGONISTS AND METHODS” (Innovative Targeting Solutions, Inc., priority 2013, published 2016).
